Legend:
[1] = target: rNav1.4 voltage-gated sodium channel α subunit (rat) (UniProt P15390)
[2] = target: rNav1.4 voltage-gated sodium channel α subunit (rat) (UniProt P15390); remark: listed apart in the source
[3] = target: rNav1.4 voltage-gated sodium channel α subunit (rat) (UniProt P15390); remark: listed apart in the source
[4] = target: rNav1.4 voltage-gated sodium channel α subunit (rat) (UniProt P15390); remark: listed apart in the source

rNavβ1 point mutant C43A (from UniProt Q00954 19-218) (natural protein)
Use-dependent current decline on repetitive depolarisations at 1 Hz (10% after the second pulse, cumulative rundown 20%) [1]: 20%
Use-dependent current rundown on repetitive depolarisations at 5 Hz (data not shown) [1]: 20%
Recovery from inactivation F (fast) [2]: 0.89
Recovery from inactivation τ (fast) [2]: 2.7 ms
Recovery from inactivation τ (slow) [2]: 636 ms
Slowing of the current recovery after 1 ms, against WT β1 [3]: 95%
Activation V1/2 of sodium currents, two electrode voltage clamp, co-expression in oocytes [4]: -29 mV
Inactivation V1/2 (steady-state inactivation) [4]: -59.1 mV

rNavβ1 point mutant G33M (from UniProt Q00954 19-218) (natural protein)
Inactivation rate τ (inac) of the peak current at −20 mV [2]: 0.46 ms
Recovery from inactivation τ (slow) [2]: 760 ms
Activation V1/2 of sodium currents, two electrode voltage clamp, co-expression in oocytes [4]: -32.5 mV
Inactivation V1/2 (steady-state inactivation) [4]: -56 mV

rNavβ1 point mutant R89A (from UniProt Q00954 19-218) (natural protein)
Inactivation rate τ (inac) of the peak current at −20 mV [2]: 2.6 ms
Recovery from inactivation F (fast) [2]: 0.92
Recovery from inactivation τ (fast) [2]: 2.3 ms
Recovery from inactivation τ (slow) [2]: 376 ms
Slowing of the current recovery after 1 ms, against WT β1 [3]: 90%
Activation V1/2 of sodium currents, two electrode voltage clamp, co-expression in oocytes [4]: -33 mV
Inactivation V1/2 (steady-state inactivation) [4]: -62.6 mV

rNavβ1 point mutant Y32A (from UniProt Q00954 19-218) (natural protein)
Inactivation rate τ (inac) of the peak current at −20 mV [2]: 0.48 ms
Recovery from inactivation τ (slow) [2]: 743 ms
Activation V1/2 of sodium currents, two electrode voltage clamp, co-expression in oocytes [4]: -34 mV
Inactivation V1/2 (steady-state inactivation) [4]: -56 mV

rNavβ1 voltage-gated sodium channel accessory subunit, wild type (from UniProt Q00954 19-218) (natural protein)
Inactivation rate τ (inac) of the peak current at −20 mV [2]: 0.6 ms
Recovery from inactivation F (fast) [2]: 0.93
Recovery from inactivation τ (fast) [2]: 1.7 ms
Recovery from inactivation τ (slow) [2]: 236 ms
Current recovery from inactivation after a recovery interval of 1 ms [3]: 50%
Activation V1/2 of sodium currents, two electrode voltage clamp, co-expression in oocytes [4]: -33.4 mV
Inactivation V1/2 (steady-state inactivation) [4]: -61.8 mV
